Test results published in a protein production outcome set (Wang et al. 2014).

Assay: label from the status in PepcDB records
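Note: failed if final PepcDB status was selected cloned or expressed and not failed if soluble or beyond.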

Sequence | protein production
MSLESMLSHPPIPIADMAEHTERLKANDSLKLSQEYESIDPGQQFTWEHSNLEVNKPKNRYANVIAYDHSRVILQPIEGIMGSDYINANYVDGYRRQNAYIATQGPLPETFGDFWRMVWEQRSATIVMMTRLEEKSRIKCDQYWPNRGTETYGFIQVTLLDTIELATFCVRTFSLHKNGSSEKREVRQFQFTAWPDHGVPEYPTPFLAFLRRVKTCNPPDAGPIVVHCSAGVGRTGCFIVIDAMLERIKPEKTVDVYGHVTLMRSQRNYMVQTEDQYSFIHEALLEAVGCGNTEVPARSLYAYIQKLAQVEPGEHVTGMELEFKRLANSKAHTSRFISANLPCNKFKNRLVNIMPYESTRVCLQPIRGVEGSDYINASFIDGYRQQKAYIATQGPLAETTEDFWRMLWENNSTIVVMLTKLREMGREKCHQYWPAERSARYQYFVVDPMAEYNMPQYILREFKVTDARDGQSRTVRQFQFTDWPEQGVPKSGEGFIDFIGQVHKTKEQFGQDGPISVHCSAGVGRTGVFITLSIVLERMRYEGVVDIFQTVKMLRTQRPAMVQTEDEYQFCYQAALEYLGSFDHYATEGHHHHHH | not failed
MSLEWCKNRLEITGRSVFVDIMQQWVTGEEVPLYRHAIQQSIRLFLAGCAGILKPVKCMEYPPFPRLVSHGTGSAVASNLAFQHWLDLLLKDAVLDGDTIRQIDRIYLQSGIASVKWETIPEGARQIITQLMARQYPDWFGVASWSSHINGADCWTKLGVMQEHACNCDMLMIIPTRLAIELNGNSQLLTGVSTTHDLYSHLYGMAWPSGQNIIWQRDRINSLRLDFDSPSYPPSAELMGELSAVFDCEIRHWYQEPVNGIRGYDCYDRGDHVDSGEYGAGPFLPPLKVEEVTVNGQEEAAEGHHHHHH | not failed
MSLFGRLLSLLLAFVPLSICAAVNHLPVVGEDYVEIPDGRPFAPLAGKIEVVEIFGYTCPHCAHFDSKLQAWGARQAKDVRFTLVPAVFGGVWDPFARAYLAADVLGVAKRSHAAMFEAIHEKGSVPIQNVGPDELAVFYAGYGVQPDRFVATFNGPEVEKRFQAARAYALKVRPVGTPAIVVDGRYMVTGHDFDDTLRITDYLVSRERAASHGR | failed
MSLGELNVATVTRRPEILLVDSQEVILQRLQQLLSPLPYTLHFARDATQALQLLASREVDLVISAAHLPQMDGPTLLARIHQQYPSTTRILLTGDPDLKLIAKAINEGEIYRYLSKPWDDQELLLALRQALEHQHSERERLRLQDEGHHHHHH | not failed
MSLGVTMHDVAKAAGVSAITVSRVLNQPQQVSEQLREKVMQAVDALAYVPSRSASTLASAKSRTVLVLIPSLANTVFLETLTGIETVLDAAGYQMLIGNSHYDAGQELQLLRAYLQHRPDGVLITGLSHAEPFERILSQHALPVVYMMDLADDGRCCVGFSQEDAGAAITRHLLSRGKRRIGFLGAQLDERVMKRLDGYRAALDAADCRDAGLEWLDPQPSSMQMGADMLDRALAERPDCDALFCCNDDLAIGALARSQQLGIAVPERLAIAGFNDLQPAAWCTPPLTTVATPRRDIGVHAAKALLQLIDGEEPASRRADLGFRLMLRRSSEGHHHHHH | not failed
MSLHPVSISLSSYGADLVRSRGQASFLPLLAMAGAQRVELREELFAGPPDTEALTAAIQLQGLECVFSSPLELWREDGQLNPELEPTLRRAEACGAGWLKVSLGLLPEQPDLAALGRRLARHGLQLLVENDQTPQGGRIEVLERFFRLAERQQLDLAMTFDIGNWRWQEQAADEAALRLGRYVGYVHCKAVIRNRDGKLVAVPPSAADLQYWQRLLQHFPEGVARAIEYPLQGDDLLSLSRRHIAALARLGQPQEERQHG | not failed
MSLHTSHVIPAPRIDVWEWHTRPGAVFRLTPPFLPLRPLEQATSLAKGTTVFALPAGLRWEARHDLSGYIQHHRFTDVCINAPVKSLASWRHIHDFTDHPSGTLITDTVHTRAPRTTLSPAFAYRQHQLINDIQAQQRFYELTRSNPTESTPLTIGLTGSRGLVGRALTAQLTTLGHTVVQLVRGESKPHQRHWDPAHPAPNLLEGLDALIHLAGEPILGRFNDAHKADIRDSRIEPTRQLSQLVQKSSTCRTMVSASAIGYYGHARGDEILDEGSTQGDDFLASVCEEWEAASRTDATSNKRIVNIRTGVVMSGRGGMLPVLKAVFSVGLGGPFRGSNPWMSWIAIDDLCDIYIRAVLDPKLSGAINAVAPNPIKNQDFVDALAKELKRPAKMTISSLGPAILLGQQGAKELALADQRVQPRVLNNLDHHFRYVDIRSCLAHELGGENLLDI | failed
MSLIADHGFAFLVLACLFGFFMAWGVGANDVANAMGTSVGSRALTIRQAILVAMVFEFCGAYFAGGEVTETIRSGIVDPQYMTPDLLVFGMLSALLAAGVWLLLATIKGWPVSTTHSIVGAIIGFASVGVSVHAVHWGAIGPIVASWVVTPVLSGLLAFALFRSVQWLVLHAEDPFRSARRYVPLYMFLAGFMVALMTVGKGLKHVGLELSGLQTLGLALLAGGLVMGLGIVLLLRIRPTGGADPRGGFASVERVFAVLMIFTACSMAFAHGANDVANAIGPVAAVVAVVQAGGDLDLVSRSPVPSWVLLLGAVGIVIGLATYGYRVIATIGREITELTPSRGFAAELATASTVVGASAIGLPVSTTHTLVGAVLGIGMARGIGALNLRVIGSIFLSWVVTLPAGAVLAILFFLVLRALFGA | failed
MSLIAIVLVFIMAIVVTVFLSHLLPVKVPLPLIQIAAGAALAASGFQVDFDPHIFLLLFIPPLLFLDGWRIPKDAFFRDMKPILSLAIGLVMVTILGIGLFIHWLIPAITVAAGFALAAILSPTDPVAVSAMTASSPLPSRMAHILEGESLLNDASGLVAFNFAIAAVLTGSFSPGDAVVKFFLMAFGGILSGLVVVWVTGKCNNFLVRRTREEPAIQILISLLIPFAAYLLAEAFHVSGILAAVAAGIAMHYEQLSGPRLPATRMKSSAVWSMLQTTLNGMIFLMLGEQLPRMLRTLPAVASQAGVSSPWYLLLYAVAITLALGLMRFAWVWLSMKLTIFRRKRRGKAITVRPRFSILAVMALAGVKGSVTLAGILTLPVVLADGSPFPGRELLIFLSMAVILMSLVVAAIGLPFMTRYLADDLPHDTGKDDIGAVMTEVAINRLNALLDEPVEDPSEQALRADAGNMLLETYQRRLHYNDNDEGQDVGLELAKRARLEKYMQREVIIAQRQELFRLRRAHNISDITFYEVLREIDLKEESLR | failed
MSLIDFHVHLDLYPDPVAVARACEERQLTVLSVTTTPAAWRGTLALAAGRPHVWTALGFHPEVVSERAADLPWFDRYLPETRFVGEVGLDGSPSLRGTWTQQFAVFQHILRRCEDHGGRILSIHSRRAESEVLNCLEANPRSGTPILHWYSGSVTELRRAISLGCWFSVGPTMVRTQKGAALIRSMPRDRVLTETDGPFLELDGQAALPWDVKSVVEGLSKIWQIPASEVERIVKENVSRLLGTVREGHHHHHH | not failed
MSLIIDGHTHVILPVEKHIKIMDEAGVDKTILFSTSIHPETAVNLRDVKKEMKKLNDVVNGKTNSMIDVRRNSIKELTNVIQAYPSRYVGFGNVPVGLSENDTNSYIEENIVNNKLVGIGELTPASGQIKSLKPIFKYSMDSGSLPIWIHAFNPLVLQDIKEIAELCKAFPKVPVILGHMGGSNWMTAVELAKEIQNLYLDTSAYFSTFVLKIVINELPLKCIFGTDMPFGDLQLSIEAIKKMSNDSYVANAVLGDNISRLLNIEGHHHHHH | not failed
MSLIIQVSPAGSMDLLSQLEVERLKKTASSDLYQLYRNCSLAVLNSGSHTDNSKELLDKYKNFDITVMRRERGIKLELANPPEHAFVDGQIIKGIQEHLFSVLRDIVYVNMHLADSQRLNLTNATHITNLVFGILRNAGALIPGATPNLVVCWGGHSINEVEYQYTREVGHELGLRELNICTGCGPGAMEGPMKGAAVGHAKQRYSEYRYLGLTEPSIIAAEPPNPIVNELVIMPDIEKRLEAFVRMAHGIIIFPGGPGTAEELLYILGIMMHPENADQPMPIVLTGPKQSEAYFRSLDKFITDTLGEAARKHYSIAIDNPAEAARIMSNAMPLVRQHRKDKEDAYSFNWSLKIEPEFQLPFEPNHESMANLDLHLNQRPEVLAANLRRAFSGVVAGNVKAEGIREIERHGPFEMHGDPVLMKKMDQLLNDFVAQNRMKLPGGSAYEPCYKIVTEGHHHHHH | not failed
MSLILCIDVGNSHIYGGVFDGDEIKLRFRHTSKVSTSDELGIFLKSVLRENNCSPETIRKIAICSVVPQVDYSLRSACVKYFSIDPFLLQAGVKTGLNIKYRNPVEVGADRIANAIAATHSFPNQNIIVIDFGTATTFCAISHKKAYLGGAILPGLRLSADALSKNTAKLPSVEIIKTESVVGRSTIESIQSGVYYGVLGACKELIQRIHHEAFNGDQILILATGGFASLFDKQGLYDHLVPDLVLQGIRLAAMMNTAEGHHHHHH | not failed
MSLIRWLVERWLEFMGNHPFLFGTLAILIVLFFIFEGQRNGRKISPQSLGILIKAKNAQLIDLRDAKDFREGHISGSRNIPYSQITSHVDELKASERPLVFICNLGQVAGSALQKIGHADSYRLDGGISNWKAQGLPLVKAKTKA | failed
MSLKDVSLSSFDAHDLDLDKFPEVVRDRLTQFLDAQELTIADIGAPVTDAVAHLRSFVLNGGKRIRPLYAWAGFLAAQGHKNSSEKLESVLDAAASLEFIQACALIHDDIIDSSDTRRGAPTVHRAVEADHRANNFEGDPEHFGVSVSILAGDMALVWAEDMLQDSGLSAEALARTRDAWRGMRTEVIGGQLLDIYLESHANESVELADSVNRFKTAAYTIARPLHLGASIAGGSPQLIDALLHYGHDIGIAFQLRDDLLGVFGDPAITGKPAGDDIREGKRTVLLALALQRADKQSPEAATAIRAGVGKVTSPEDIAVITEHIRATGAEEEVEQRISQLTESGLAHLDDVDIPDEVRAQLRALAIRSTERREGHHHHHH | not failed
MSLKENKYDDKHFFEQYSQMPRSKEGLKAAGEWHELKKMLPDFNQKTVLDLGCGFGWHCIYAAEHGAKKVLGIDLSERMLTEAKRKTTSPVVCYEQKAIEDIAIEPDAYNVVLSSLALHYIASFDDICKKVYINLKSSGSFIFSVEHPVFTADGRQDWYTDETGNKLHWPVDRYFNESMRTSHFLGEDVQKYHRTVTTYIQTLLKNGFQINSVIEPEPAPELKDLPEMQDEYRRPMMLLISATKQEGHHHHHH | not failed
MSLKHYSIQPANLEFNAEGTPVSRDFDDVYFSNDNGLEETRYVFLGGNQLEARFPEHPHPLFVVAESGFGTGLNFLTLWQAFDQFREAHPQAQLQRLHFISFEKFPLTRADLALAHQHWPELAPWAEQLQAQWPMPLPGCHRLLLDEGRVTLDLWFGDINELISQLDDSLNQKVDAWFLDGFAPAKNPDMWTQNLFNAMARLARPGGTLATFTSAGFVRRGLQEAGFTMQKRKGFGRKREMLCGVMEQTEGHHHHHH | not failed
MSLKIAVTGGTGFLGQYVVESIKNDGNTPIILTRSIGNKAINDYEYRVSDYTLEDLINQLNDVDAVVHLAATRGSQGKISEFHDNEILTQNLYDACYENNISNIVYASTISAYSDETSLPWNEKELPLPDLMYGVSKLACEHIGNIYSRKKGLCIKNLRFAHLYGFNEKNNYMINRFFRQAFHGEQLTLHANSVAKREFLYAKDAAKSVIYALKQEKVSGTFNIGSGDALTNYEVANTINNAFGNKDNLLVKNPNANEGIHSSYMDSSKAKELLDFSTDYNFATAVEEIHLLMRGLDDVPLWYEGHHHHHH | not failed
MSLKICVIGSSGHFRYALEGLDEECSITGIAPGVPEEDLSKLEKAISEMNIKPKKYNNWWEMLEKEKPDILVINTVFSLNGKILLEALERKIHAFVEKPIATTFEDLEKIRSVYQKVRNEVFFTAMFGIRYRPHFLTAKKLVSEGAVGEIRLVNTQKSYKLGQRPDFYKKRETYGGTIPWVGIHAIDWIHWITGKKFLSVYATHSRLHNSGHGELETTALCHFTLENEVFASLSIDYLRPQGAPTHDDDRMRIVGTRGIVEVINERVFLTDEKGHREVPLVEKGQIFEDFLREIRGQGKCMVTPEDSILTTEIALKARLSADTGQIVLIEGHHHHHH | not failed
